Data published in patent publication US6383753 (REGENTS OF THE UNIVERSITY OF MICHIGAN, dated 2002).

Experiments:
[1] = biological target: T1, yeast Emg1-Nuclear Interacting Protein 1 (ENIP1), S. cerevisiae gene locus YDL148c (S. cerevisiae, UniProt Q99207 1-810, limits assumed); test: yeast two-hybrid, cell growth assay on selective (no histidine) medium
T1 construct: 810 amino acids; also called yeast ENIP1; yENIP
T1 sequence: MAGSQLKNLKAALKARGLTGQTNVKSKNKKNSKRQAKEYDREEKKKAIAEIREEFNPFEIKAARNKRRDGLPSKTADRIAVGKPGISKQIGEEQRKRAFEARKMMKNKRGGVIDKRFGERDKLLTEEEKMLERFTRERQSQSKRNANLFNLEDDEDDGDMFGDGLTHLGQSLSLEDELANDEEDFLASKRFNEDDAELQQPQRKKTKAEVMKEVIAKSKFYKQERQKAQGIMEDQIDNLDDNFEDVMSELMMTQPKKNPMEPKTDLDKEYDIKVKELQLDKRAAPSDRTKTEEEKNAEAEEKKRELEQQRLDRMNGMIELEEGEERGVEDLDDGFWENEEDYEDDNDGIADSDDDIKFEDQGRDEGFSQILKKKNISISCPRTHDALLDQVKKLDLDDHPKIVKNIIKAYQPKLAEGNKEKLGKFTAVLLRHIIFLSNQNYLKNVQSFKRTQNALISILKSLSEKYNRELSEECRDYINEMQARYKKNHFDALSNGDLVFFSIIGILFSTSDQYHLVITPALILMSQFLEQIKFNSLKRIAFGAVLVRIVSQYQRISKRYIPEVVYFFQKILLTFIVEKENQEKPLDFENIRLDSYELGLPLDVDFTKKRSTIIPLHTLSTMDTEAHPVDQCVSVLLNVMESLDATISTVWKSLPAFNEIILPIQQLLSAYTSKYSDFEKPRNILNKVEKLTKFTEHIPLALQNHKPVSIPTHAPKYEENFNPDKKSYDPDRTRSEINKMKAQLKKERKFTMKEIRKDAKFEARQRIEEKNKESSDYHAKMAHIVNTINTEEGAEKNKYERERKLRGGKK

[2] = biological target: T2, yeast ENIP1 protein fragment (composed of amino acids 170-469) (S. cerevisiae, UniProt Q99207 170-469); test: yeast two-hybrid
T2 construct: Truncation construct used in the yeast two-hybrid system
T2 sequence: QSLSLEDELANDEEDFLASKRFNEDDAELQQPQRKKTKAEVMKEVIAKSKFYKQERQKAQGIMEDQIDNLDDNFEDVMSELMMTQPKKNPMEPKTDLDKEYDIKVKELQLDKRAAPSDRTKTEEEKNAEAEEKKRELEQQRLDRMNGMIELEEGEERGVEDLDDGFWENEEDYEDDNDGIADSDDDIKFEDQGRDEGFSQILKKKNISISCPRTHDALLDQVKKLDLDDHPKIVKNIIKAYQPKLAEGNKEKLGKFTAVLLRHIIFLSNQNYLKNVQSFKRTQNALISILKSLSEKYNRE

B1: mouse Emg1 protein (other)
chain: MSAASGGFQPRERRFSVQEQDWETTPPKKLRLGAGSKCGGRRLIVVLEGASLETVKVGKTYELLNCDRHKSMLLKNGRDPGEVRPDITHQSLLMLMDSPLNRAGLLQVYIHTQKNVLIEVNPQTRIPRTFDRFCGLMVQLLHKLSVRAADGPQKLLKVIKNPVSDHFPVGCMKIGTSFSVEDISDIRELVPSSDPVVFVVGAFAHGKVSVEYTEKMVSISNYPLSAALTCAKVTTAFEEVWGVI
notes: Used as a two-hybrid fusion; also called mEmg1; murine Emg1
- binding result [1]: binds
- binding result [2]: binds
